Measurements: patent publication US11419948B2, “Functionalized microgels with fibrin binding elements” (Georgia Tech Research Corporation, priority 2013, dated 2022)

T1: fibrin clot polymerization (Homo sapiens, UniProt P02671+P02675+P02679)
T1 sequence (P02671 36-866 limits assumed): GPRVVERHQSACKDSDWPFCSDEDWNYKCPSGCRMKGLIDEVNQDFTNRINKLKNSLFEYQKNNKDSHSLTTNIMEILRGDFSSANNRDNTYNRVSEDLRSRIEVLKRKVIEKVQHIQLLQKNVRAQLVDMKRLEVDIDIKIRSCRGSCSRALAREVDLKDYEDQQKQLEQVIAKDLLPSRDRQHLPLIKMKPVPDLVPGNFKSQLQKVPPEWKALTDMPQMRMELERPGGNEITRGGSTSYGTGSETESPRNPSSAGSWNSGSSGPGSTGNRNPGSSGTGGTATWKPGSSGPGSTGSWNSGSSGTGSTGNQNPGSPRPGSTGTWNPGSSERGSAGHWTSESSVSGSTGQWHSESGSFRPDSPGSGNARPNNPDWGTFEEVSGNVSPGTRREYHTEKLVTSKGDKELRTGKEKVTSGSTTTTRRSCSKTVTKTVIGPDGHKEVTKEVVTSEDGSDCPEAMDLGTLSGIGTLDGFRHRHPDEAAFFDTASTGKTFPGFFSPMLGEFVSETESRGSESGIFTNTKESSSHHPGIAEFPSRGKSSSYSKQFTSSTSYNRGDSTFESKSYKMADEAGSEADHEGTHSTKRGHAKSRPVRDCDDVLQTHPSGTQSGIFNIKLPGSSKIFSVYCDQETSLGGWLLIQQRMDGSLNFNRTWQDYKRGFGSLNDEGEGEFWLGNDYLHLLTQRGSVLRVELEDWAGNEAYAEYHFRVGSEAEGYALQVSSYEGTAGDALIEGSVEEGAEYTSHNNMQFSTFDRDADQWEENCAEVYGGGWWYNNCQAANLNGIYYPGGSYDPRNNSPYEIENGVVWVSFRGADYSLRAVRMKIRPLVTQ
T1 sequence (P02675 45-491 limits assumed): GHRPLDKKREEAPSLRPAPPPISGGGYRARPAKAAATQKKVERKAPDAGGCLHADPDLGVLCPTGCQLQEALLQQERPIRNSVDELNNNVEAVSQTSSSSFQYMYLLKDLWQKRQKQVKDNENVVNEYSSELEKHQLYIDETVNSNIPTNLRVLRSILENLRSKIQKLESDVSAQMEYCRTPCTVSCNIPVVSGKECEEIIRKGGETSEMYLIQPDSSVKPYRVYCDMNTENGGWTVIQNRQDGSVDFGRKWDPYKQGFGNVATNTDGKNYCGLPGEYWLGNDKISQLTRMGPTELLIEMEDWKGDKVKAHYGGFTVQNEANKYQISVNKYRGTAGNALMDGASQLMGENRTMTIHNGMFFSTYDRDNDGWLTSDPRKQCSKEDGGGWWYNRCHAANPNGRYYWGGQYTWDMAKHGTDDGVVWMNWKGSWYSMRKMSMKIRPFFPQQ
T1 sequence (P02679 27-453): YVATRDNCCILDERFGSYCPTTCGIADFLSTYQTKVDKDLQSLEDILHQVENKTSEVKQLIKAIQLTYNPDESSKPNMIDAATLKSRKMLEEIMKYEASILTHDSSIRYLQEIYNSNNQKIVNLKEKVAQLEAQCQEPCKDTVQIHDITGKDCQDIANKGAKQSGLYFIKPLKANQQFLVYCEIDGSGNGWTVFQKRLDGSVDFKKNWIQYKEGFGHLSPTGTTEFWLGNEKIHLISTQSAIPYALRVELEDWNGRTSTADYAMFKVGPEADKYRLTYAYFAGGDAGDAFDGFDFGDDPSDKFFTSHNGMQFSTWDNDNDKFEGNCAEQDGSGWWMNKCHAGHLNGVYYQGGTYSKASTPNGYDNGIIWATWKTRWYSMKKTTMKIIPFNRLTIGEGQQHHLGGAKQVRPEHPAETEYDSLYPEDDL

B1: PLPs: ultra-low crosslinked pNIPAm-AAc microgels conjugated to fibrin-specific sdFv H6 (conjugate)
VH: QVQLLESGGGLVQPGGSLRLSCAASGDRFTHNDMGWVRQAPGKGLEWVSTIPTTDGSTYYADSVKGRFTISRDNSKSTLYLQMNSLRAEDTAVYYCATGYMWKAPAYVKYWGQGTLVTVSSAAAEQKLISEEDLNSAAHYTDIG
B2: H6: fibrin-specific human sdFv clone from phage biopanning, SEQ ID NO: 1 (protein)
VHH: B1 VH

Experiments:
platelet-poor plasma = test: Gross clot contraction of platelet-poor plasma clots; format: biochemical
Excerpt: Clot collapse was characterized at the macroscopic level by performing standard gross clot contraction experiments routinely utilized by platelet biologists, Thomas, et al., BMC Cell Biology, 8:46 (2007); Suzuki-Inoue, et al., Thrombosis Research, 120:251-258 (2007). It was expected that particle deformability would play a large role in the ability of fibrin-binding microgels to induce gross clot deformation and architectural changes. Clots were created through the addition of 1 U/mL thrombin (final concentration) to platelet-poor plasma containing microgels of varying crosslinking. Clot collapse was observed within 48 hours in the presence of PLPs but not under any other conditions tested (FIG. 4B). […] Because natural platelet mediated contraction decreases clot degradation rates, we analyzed clot degradation rates in the absence or presence of PLPs. […] Because clot contraction was not observed in the presence of non-fibrin binding ULC microgels or in the presence of fibrin-binding BIS crosslinked microgels or hard PS particles, we conclude that, while enhancement of clotting in vitro only requires high affinity and multivalency for fibrin, particle deformability is critical to the ability of fibrin-binding particles to induce clot collapse. To fully recapitulate the hemostatic functions of platelets (enhancement of dotting and clot contraction following hemostasis) it appears that both high fibrin affinity and high particle deformability are required.

[1] = target: T1, fibrin clot polymerization; test: Turbidity assay of fibrin clot polymerization; format: biochemical
Experimental: H6 interference with fibrin clot polymerization was determined through turbidity and clottability assays. The turbidity assay involved polymerizing physiological fibrin clots (2 mg/mL) in wells of a 96-well plate while taking absorbance measurements at 350 nm every 30 seconds. An increase in absorbance correlates to an increase in clot “cloudiness” which, in turn, indicates gelation. Turbidity of standard fibrin clots was compared to that of clots exposed to varying molar concentrations ranging from 1:1 to 1:1000 molar ratios of nanobody to fibrinogen.

human plasma components = test: Qualitative human plasma assay (protein A pull down, polyacrylamide gel); format: binding; details: 30 minutes room temperature
Experimental: H6 binding was determined through both qualitative and quantitative human plasma assays. The qualitative assay involved incubating either H6, the non-binding negative control, S11, or saline with human plasma at room temperature for 30 minutes. The plasma mixtures were subsequently incubated with protein A beads with the intent to pull down all IgG isotypes (including H6 and S11).
The eluants from the protein A pull down experiment were run on a polyacrylamide gradient gel to visualize any band shifts present in the H6-plasma solution that would indicate a binding interaction not present in the S11-plasma or saline-plasma solutions.

Molecule | overall degree of clot contraction (platelet-poor plasma; platelet-poor plasma with particles versus native platelet-rich plasma) | time to clot collapse (platelet-poor plasma; platelet-poor plasma, 1 U/mL thrombin) [h] | rate of induced clot collapse (platelet-poor plasma; versus native platelet-containing clots) | turbidity versus fibrin controls ([1]; all other molar ratios) | turbidity versus fibrin controls ([1]; molar ratio to fibrinogen 1:1, differences not significant) | non-specific binding to human plasma components (band shifts) (human plasma components)
B1 | No significant differences | ≤ 48 | significantly less |  |  | 
B2 |  |  |  | indistinguishable from physiological fibrin controls | notable difference in turbidity readings | did not non-specifically bind
